The record followed here is publication PMC10774421 (Nature Communications, 2024).

One assay has as its target T1, HiSiaP (Haemophilus influenzae, UniProt P44542, S67C/S194C).
T1 construct: gene siaP
As to conditions: 50 mM Tris pH 8, 50 mM NaCl; average of triplicates; CLOSED #1, no oxidant added.

Assay [1] has as its target HiSiaQM OFS #2 (Y252C/M297C in HiSiaQM ΔCys) (Haemophilus influenzae) (UniProt P44543). Nature of the assay: single-molecule TIRF microscopy.
The next assay concerns the target T2, wild-type HiSiaQM (Haemophilus influenzae, UniProt P44543).
T2 construct: also called wt HiSiaQM; HiSiaQM wt
Kind of assay: single-molecule TIRF microscopy. As to conditions: both partners purified.

One may read the Kd as a measure of binding affinity in units of concentration. The low end stands for tighter binding, the high end for weaker binding. On HiSiaP, `CC(=O)N[C@H]1[C@H]([C@H](O)[C@H](O)CO)OC(O)(C(=O)O)C[C@@H]1O` (stereo partly drawn) [Neu5Ac] returned an equilibrium dissociation constant (Kd) of 800 nM.
Turning to “AF647-labeled wild-type HiSiaP (K254C) (from UniProt P44542 24-329) (natural protein)”, the change of the rate of interactions (against the wild-type proteins) in assay [1] was -50%.

B1: AF555-VHHQM3 (S85C) (VHH)
VHH: QLQLVETGGGLVQPGGSLRLSCTASRVTLDYHDIGWFRQAPGKEREGVSYISSSGGSTNYADSVKGRFTISRDNAKNTVYLQMNCLKPEDTAVYYCARSSAYGSSWLNPSRYDYWGQGTQVTVSS
Consider B1, for which the binding result with wild-type HiSiaQM is on record as “binds”.
